The values below come from patent US20230416335A1.

Experiment [1] addresses … (SEQ ID NO: 1)-HLA-A*02 complex (human). As to the kind of experiment: cell-based or functional assay.
The target is the same in experiment [2]. As to the kind of experiment: SPR (BIAcore) or BLI (Octet) per Example 3, immobilised biotinylated pHLA, 25 C. Background: Surface plasmon resonance follows binding to a sensor surface in real time, without labels.

B1: ImmTAC molecule a79b75 (TCR-anti-CD3 fusion) (TCR, part only; not given: anti-CD3 scFv, linker, constant regions, not shown: a dimerising Fc or GST)
TCR alpha, part: GDAKTTQPNSMESNEEEPVHLPCNHSTISGTDYIHWYRQLPSQGPEYVIHGLTSNVNNRMASLAIAEDRKSSTLILHRATLRDAAVYYCILILGHSRLGNYIATFGKGTKLSVIP
TCR beta, part: DGGITQSPKYLFRKEGQNVTLSCEQNLNHDAMYWYRQDPGQGLRLIYYSQIMGDEQKGDIAEGYSVSREKKESFPLTVTSAQKNPTAFYLCASSWWTGGSAPISFGPGTRLTVT
As a reminder, the Kd is the constant that tells how readily two partners part at equilibrium. Lower therefore signals a tighter complex. In the case of B1, the EC50 (mel624), IFN-γ ELISPOT, T cell activation in experiment [1] stood at 0.0236 nM. For the same molecule, in experiment [2], the Kd turned out to be 0.0577 nM and the t1/2 was 16.9 h.

B2: ImmTAC molecule a79b58 (TCR-anti-CD3 fusion) (TCR, part only; not given: anti-CD3 scFv, linker, constant regions, not shown: a dimerising Fc or GST)
TCR alpha, part: GDAKTTQPNSMESNEEEPVHLPCNHSTISGTDYIHWYRQLPSQGPEYVIHGLTSNVNNRMASLAIAEDRKSSTLILHRATLRDAAVYYCILILGHSRLGNYIATFGKGTKLSVIP
TCR beta, part: DGGITQSPKYLFRKEGQNVTLSCEQNLNHDAMYWYRQDPGQGLRLIYYSQIMGDEQKGDIAEGYSVSREKKESFPLTVTSAQKNPTAFYLCASSWWTGGSSPISFGPGTRLTVT
In experiment [1], B2 registered an EC50 (mel624), IFN-γ ELISPOT, T cell activation of 0.0106 nM. Moreover, in experiment [2], the Kd was found to be 0.0231 nM and the t1/2 stood at 28.7 h.

B3: ImmTAC molecule a79b73 (TCR-anti-CD3 fusion) (TCR, part only; not given: anti-CD3 scFv, linker, constant regions, not shown: a dimerising Fc or GST)
TCR alpha, part: GDAKTTQPNSMESNEEEPVHLPCNHSTISGTDYIHWYRQLPSQGPEYVIHGLTSNVNNRMASLAIAEDRKSSTLILHRATLRDAAVYYCILILGHSRLGNYIATFGKGTKLSVIP
TCR beta, part: DGGITQSPKYLFRKEGQNVTLSCEQNLNHDAMYWYRQDPGQGLRLIYYSQIMGDEQKGDIAEGYSVSREKKESFPLTVTSAQKNPTAFYLCASSWWTGGAAPISFGPGTRLTVT
Turning to B3, in experiment [1], the EC50 (mel624), IFN-γ ELISPOT, T cell activation stood at 0.0231 nM. In experiment [2], the Kd came to 0.132 nM and the t1/2 is 4.6 h.

B4: ImmTAC molecule a28b75 (TCR-anti-CD3 fusion) (TCR, part only; not given: TCR constant regions and anti-CD3 scFv, not shown: a dimerising Fc or GST)
TCR alpha, part: GDAKTTQPNSMESNEEEPVHLPCNHSTISGTDYIHWYRQLPSQGPEYVIHGLTSNVNNRMASLAIAEDRKSSTLILHRATLRDAAVYYCILILGHSRAGNYIATFGKGTKLSVIP
TCR beta, part: DGGITQSPKYLFRKEGQNVTLSCEQNLNHDAMYWYRQDPGQGLRLIYYSQIMGDEQKGDIAEGYSVSREKKESFPLTVTSAQKNPTAFYLCASSWWTGGSAPISFGPGTRLTVT
Regarding B4, the EC50 (mel624), IFN-γ ELISPOT, T cell activation in experiment [1] turned out to be 0.0139 nM. In experiment [2], this molecule showed a Kd of 0.214 nM and a t1/2 of 5.1 h.

B5: ImmTAC molecule a79b67 (TCR-anti-CD3 fusion) (TCR, part only; not given: anti-CD3 scFv, linker, constant regions, not shown: a dimerising Fc or GST)
TCR alpha, part: GDAKTTQPNSMESNEEEPVHLPCNHSTISGTDYIHWYRQLPSQGPEYVIHGLTSNVNNRMASLAIAEDRKSSTLILHRATLRDAAVYYCILILGHSRLGNYIATFGKGTKLSVIP
TCR beta, part: DGGITQSPKYLFRKEGQNVTLSCEQNLNHDAMYWYRQDPGQGLRLIYYSQIMGDEQKGDIAEGYSVSREKKESFPLTVTSAQKNPTAFYLCASSWWTSGSAPIRFGPGTRLTVT
As to B5, the EC50 (mel624), IFN-γ ELISPOT, T cell activation in experiment [1] came out at 0.0263 nM. In addition, in experiment [2], the Kd came out at 0.047 nM and the t1/2 worked out at 12.7 h.

B6: ImmTAC molecule a79b69 (TCR-anti-CD3 fusion) (TCR, part only; not given: anti-CD3 scFv, linker, constant regions, not shown: a dimerising Fc or GST)
TCR alpha, part: GDAKTTQPNSMESNEEEPVHLPCNHSTISGTDYIHWYRQLPSQGPEYVIHGLTSNVNNRMASLAIAEDRKSSTLILHRATLRDAAVYYCILILGHSRLGNYIATFGKGTKLSVIP
TCR beta, part: DGGITQSPKYLFRKEGQNVTLSCEQNLNHDAMYWYRQDPGQGLRLIYYSQIMGDEQKGDIAEGYSVSREKKESFPLTVTSAQKNPTAFYLCASSWWTGGSAEIRFGPGTRLTVT
Molecule B6 displayed an EC50 (mel624), IFN-γ ELISPOT, T cell activation in experiment [1] of 0.0398 nM. In experiment [2], this molecule displayed a Kd of 0.052 nM and a t1/2 of 20.4 h.

B7: ImmTAC molecule a28b60 (TCR-anti-CD3 fusion) (TCR, part only; not given: anti-CD3 scFv, linker, constant regions, not shown: a dimerising Fc or GST)
TCR alpha, part: GDAKTTQPNSMESNEEEPVHLPCNHSTISGTDYIHWYRQLPSQGPEYVIHGLTSNVNNRMASLAIAEDRKSSTLILHRATLRDAAVYYCILILGHSRAGNYIATFGKGTKLSVIP
TCR beta, part: DGGITQSPKYLFRKEGQNVTLSCEQNLNHDAMYWYRQDPGQGLRLIYYSQIMGDEQKGDIAEGYSVSREKKESFPLTVTSAQKNPTAFYLCASSWWTGGASEISFGPGTRLTVT
For the molecule B7, the EC50 (mel624), IFN-γ ELISPOT, T cell activation in experiment [1] was determined as 0.0317 nM. For the same molecule, in experiment [2], the Kd worked out at 0.261 nM and the t1/2 is 2.8 h.

B8: ImmTAC molecule a79b63 (TCR-anti-CD3 fusion) (TCR, part only; not given: anti-CD3 scFv, linker, constant regions, not shown: a dimerising Fc or GST)
TCR alpha, part: GDAKTTQPNSMESNEEEPVHLPCNHSTISGTDYIHWYRQLPSQGPEYVIHGLTSNVNNRMASLAIAEDRKSSTLILHRATLRDAAVYYCILILGHSRLGNYIATFGKGTKLSVIP
TCR beta, part: DGGITQSPKYLFRKEGQNVTLSCEQNLNHDAMYWYRQDPGQGLRLIYYSQIVGDEQKGDIAEGYSVSREKKESFPLTVTSAQKNPTAFYLCASSWWTGGSAPIRFGPGTRLTVT
Regarding B8, in experiment [1], the EC50 (mel624), IFN-γ ELISPOT, T cell activation stood at 0.0229 nM. In experiment [2], this molecule had a Kd of 0.079 nM and a t1/2 of 10.8 h.

B9: ImmTAC molecule a79b66 (TCR-anti-CD3 fusion) (TCR, part only; not given: anti-CD3 scFv, linker, constant regions, not shown: a dimerising Fc or GST)
TCR alpha, part: GDAKTTQPNSMESNEEEPVHLPCNHSTISGTDYIHWYRQLPSQGPEYVIHGLTSNVNNRMASLAIAEDRKSSTLILHRATLRDAAVYYCILILGHSRLGNYIATFGKGTKLSVIP
TCR beta, part: DGGITQSPKYLFRKEGQNVTLSCEQNLNHDAMYWYRQDPGQGLRLIYYSQIMGDEQKGDIAEGYSVSREKKESFPLTVTSAQKNPTAFYLCASSPWTGGSAPIRFGPGTRLTVT
In experiment [1], B9 showed an EC50 (mel624), IFN-γ ELISPOT, T cell activation of 0.0167 nM. Moreover, in experiment [2], the Kd amounted to 0.089 nM and the t1/2 is 9.16 h.
